B1: HDV Ribozyme (parent)
chain: GGCCGGCAUGGUCCCAGCCUCCUCGCUGGCGCCGGCUGGGCAACAUUCCGAGGGGACCGUCCCCUCGGUAAUGGCGAAUGGGACCCA

The variants in the series derive from B1. Kind of series: self-cleavage, relative activity (ratio to wild type); higher = more cleavage; co-transcriptional.
For GGCCGGCAUGGUCCCAGCCUCCUCGCUGGCGCCGGCUGGGCAACAUUCCGAGGGGGCCGUCCACUCGGUAAUGGCGAAUGGGACCCA [A56G C63A], the self-cleavage was determined as 0.831.
GGCCGGCAUGGUCCCAGCCUCCUCGCUGGCGCCGGCUGGGCAACAUUCCGAGGGGGCCGUCCCCUCGUUAAUGGCGAAUGGGACCCA [A56G G68U]: the self-cleavage came out at 1.18.
The value for GGCCGGCAUGGUCCCAGCCUCCUCGCUGGCGCCGGCUGGGCAACAUUCCGAGGGGGCCGUCCCCUCGCUAAUGGCGAAUGGGACCCA [A56G G68C] was 1.01; that for GGCCGGCAUGGUCCCAGCCUCCUCGCUGGCGCCGGCUGGGCAACAUUCCGAGGGGUCCGUCGCCUCGGUAAUGGCGAAUGGGACCCA [A56U C62G] was 0.601.
With GGCCGGCAUGGUCCCAGCCUCCUCGCUGGCGCCGGCUGGGCAACAUUCCGAGGGGGCCGUCCCCUCGGUAAUGGCGAAUGUGACCCA [A56G G81U], the self-cleavage amounted to 0.332.
The value for GGCCGGCAUGGUCCCAGCCUCCUCGCUGGCGCCGGCUGGGCAACAUUCCGAGGGGGCCCUCCCCUCGGUAAUGGCGAAUGGGACCCA [A56G G59C] was 1.3.
As to GGCCGGCAUGGUCCCAGCCUCCUCGCUGGCGCCGGCUGGGCAACAUUCCGAGGGGGCCGUCCCCUCGGUAAUGUCGAAUGGGACCCA [A56G G74U], the self-cleavage came to 0.564.
For the variant GGCCGGCAUGGUCCCAGCCUCCUCGCUGGCGCCGGCUGGGCAACAUUCCGAGGGGGCCGUCCCCGCGGUAAUGGCGAAUGGGACCCA [A56G U65G], the self-cleavage came out at 0.957.
The figure for GGCCGGCAUGGUCCCAGCCUCCUCGCUGGCGCCGGCUGGGCAACAUUCCGAGGGGGCCGUCCCCACGGUAAUGGCGAAUGGGACCCA [A56G U65A] is 0.867.
The value for GGCCGGCAUGGUCCCAGCCUCCUCGCUGGCGCCGGCUGGGCAACAUUCCGAGGGGGCCGUCCCCUCGGUAAUGGCUAAUGGGACCCA [A56G G76U] was 1.22; that for GGCCGGCAUGGUCCCAGCCUCCUCGCUGGCGCCGGCUGGGCAACAUUCCGAGGGGGCCGUCCCCUCGGUAAUGGCGAAUGGCACCCA [A56G G82C] was 0.193; that for GGCCGGCAUGGUCCCAGCCUCCUCGCUGGCGCCGGCUGGGCAACAUUCCGAGGGGUCCGUCCCCUCGGUAAUGGCGCAUGGGACCCA [A56U A77C] was 0.341.
As to GGCCGGCAUGGUCCCAGCCUCCUCGCUGGCGCCGGCUGGGCAACAUUCCGAGGGGUCCGUCCCCUCGGUAAUGGCGAUUGGGACCCA [A56U A78U], the self-cleavage was determined as 0.0573.
The value for GGCCGGCAUGGUCCCAGCCUCCUCGCUGGCGCCGGCUGGGCAACAUUCCGAGGGGUCCGUCCCCUCGGUAAUGGCGACUGGGACCCA [A56U A78C] was 0.272.
As for GGCCGGCAUGGUCCCAGCCUCCUCGCUGGCGCCGGCUGGGCAACAUUCCGAGGGGUCCGUCCCCUCGGUAAUGGCGAAUGGGGCCCA [A56U A83G], the self-cleavage came out at 0.876.
The figure for GGCCGGCAUGGUCCCAGCCUCCUCGCUGGCGCCGGCUGGGCAACAUUCCGAGGGGUCCGUCCCCUCGGUAGUGGCGAAUGGGACCCA [A56U A71G] is 0.762; for GGCCGGCAUGGUCCCAGCCUCCUCGCUGGCGCCGGCUGGGCAACAUUCCGAGGGGUCCGUCCCCUCGGUAUUGGCGAAUGGGACCCA [A56U A71U] it is 0.864; for GGCCGGCAUGGUCCCAGCCUCCUCGCUGGCGCCGGCUGGGCAACAUUCCGAGGGGGCCGUCCCCUCUGUAAUGGCGAAUGGGACCCA [A56G G67U] it is 0.997.
The value for GGCCGGCAUGGUCCCAGCCUCCUCGCUGGCGCCGGCUGGGCAACAUUCCGAGGGGGCCGUCCCCUCGGUAAUGGCGAAGGGGACCCA [A56G U79G] was 0.65; that for GGCCGGCAUGGUCCCAGCCUCCUCGCUGGCGCCGGCUGGGCAACAUUCCGAGGGGGCCGUCCCCUCGGUAAUGGCGAAUGGGACCAA [A56G C86A] was 0.718; that for GGCCGGCAUGGUCCCAGCCUCCUCGCUGGCGCCGGCUGGGCAACAUUCCGAGGGGUCCGUCCCCUCGGUAAUGGUGAAUGGGACCCA [A56U C75U] was 0.237.
As to GGCCGGCAUGGUCCCAGCCUCCUCGCUGGCGCCGGCUGGGCAACAUUCCGAGGGGUCCGUCCCCUUGGUAAUGGCGAAUGGGACCCA [A56U C66U], the self-cleavage worked out at 0.923.
The figure for GGCCGGCAUGGUCCCAGCCUCCUCGCUGGCGCCGGCUGGGCAACAUUCCGAGGGGUCCGUCCCCUCGGUAAUGGCGAAUGGGAGCCA [A56U C84G] is 0.697; for GGCCGGCAUGGUCCCAGCCUCCUCGCUGGCGCCGGCUGGGCAACAUUCCGAGGGGUCCGUCCCCUCGGUAAUGGCGAAUGGGAACCA [A56U C84A] it is 0.895; for GGCCGGCAUGGUCCCAGCCUCCUCGCUGGCGCCGGCUGGGCAACAUUCCGAGGGGGCCGUCCCCUGGGUAAUGGCGAAUGGGACCCA [A56G C66G] it is 1.01.
The figure for GGCCGGCAUGGUCCCAGCCUCCUCGCUGGCGCCGGCUGGGCAACAUUCCGAGGGGUCCGUCCCCUCGGUAAUGGCGAAUGGGACCCG [A56U A87G] is 1.02; for GGCCGGCAUGGUCCCAGCCUCCUCGCUGGCGCCGGCUGGGCAACAUUCCGAGGGGGCCGUCCCCUCGGUAAUGGCGAAUCGGACCCA [A56G G80C] it is 0.259.
The figure for GGCCGGCAUGGUCCCAGCCUCCUCGCUGGCGCCGGCUGGGCAACAUUCCGAGGGGGCCGUCCCCUCGGUAAUGGCGAAUAGGACCCA [A56G G80A] is 0.32; for GGCCGGCAUGGUCCCAGCCUCCUCGCUGGCGCCGGCUGGGCAACAUUCCGAGGGGGCCGUCCCCUCGGUAAUAGCGAAUGGGACCCA [A56G G73A] it is 0.749; for GGCCGGCAUGGUCCCAGCCUCCUCGCUGGCGCCGGCUGGGCAACAUUCCGAGGGGUCCGUACCCUCGGUAAUGGCGAAUGGGACCCA [A56U C61A] it is 0.943.
Regarding GGCCGGCAUGGUCCCAGCCUCCUCGCUGGCGCCGGCUGGGCAACAUUCCGAGGGGUCCGUGCCCUCGGUAAUGGCGAAUGGGACCCA [A56U C61G], the self-cleavage came to 0.997.
The figure for GGCCGGCAUGGUCCCAGCCUCCUCGCUGGCGCCGGCUGGGCAACAUUCCGAGGGGGCCGUCCCGUCGGUAAUGGCGAAUGGGACCCA [A56G C64G] is 0.791.

(Values after the RNAGym collection of RNA variant scans (doi:10.7554/elife.80360).)
